# “Also recorded” adds a separate entry of the source.
# B1: human pancreatic polypeptide (hPP) (peptide)
# peptide: APLEPVYPGDNATPEQMAQYAADLRRYINMLTRPRY
# What was measured:
# [1] = DMEM/Ham‘s w/o FBS, pH = 7.04
# [2] = luciferase reporter gene assay medium (DMEM/Ham‘s w/o phenolred, w/o FBS, pH = 7.41)
# [3] = DMEM/Ham‘s with 15% FBS, pH = 8.01
# [4] = DPBS, pH = 7.4
# [5] = molecular target: human neuropeptide Y receptor type 4 (hY4R), in stably transfected COS-7 cells (human) (UniProt P50391)
# [6] = molecular target: human neuropeptide Y (NPY) receptor type 1 (hY1R), in stably transfected COS-7 cells (human) (UniProt P25929)
# [7] = molecular target: human neuropeptide Y receptor type 4 (hY4R), in stably transfected COS-7 cells (human) (UniProt P50391); remark: listed apart in the source
# [8] = molecular target: human neuropeptide Y (NPY) receptor type 1 (hY1R), in stably transfected COS-7 cells (human) (UniProt P25929); remark: listed apart in the source
# [9] = test system: ERα; test: Luciferase reporter gene assay, control HEK293 cells expressing only ERα-pEGFP and TATA-luciferase (w/o hY1R); conditions: read-out: EC50 luciferase reporter gene assay, w/o hY1R; HEK293 cells expressing ERα and ERE-luciferase but not hY1R; stimulation 24 h; normalized to 4-OHT; n. d. = could not be determined
# Description: Values were normalized to the native ligands (NPY for hY1R and hY2R, hPP for hY4R). Data points represent mean ± SEM from n ≥ 2 independent experiments with technical triplicates. Luciferase reporter gene assay in transiently transfected HEK293‐cells expressing hY1R‐eYFP. […] Data points represent mean ± SEM from n ≥ 3 independent experiments with technical triplicates. Calculated pEC50‐ and Emax‐values are shown as bar graphs.
# HEK293‐cells were transiently transfected with 0.083 µg/well hY1R‐eYFP‐pVitro2, pEGFP‐c1‐ERα (kindly provided by Michael Mancini (Addgene plasmid #28230; http://n2t.net/addgene:28230; RRID:Addgene_28230))^[ [58] ^] and 3xERE‐Tata‐Luc (kindly provided by Donald McDonnell (Addgene plasmid #11354; http://n2t.net/addgene:11354; RRID:Addgene_11354))^[ [59] ^] parallel to cell seeding. For a control experiment without hY1R‐expression, pEGFP‐N1 together with pEGFP‐c1‐ERα and 3xERETata‐Luc was transfected instead. Lipofectamine2000 (Invitrogen) was used as a transfection reagent according to the manufacturer's protocol. […] Luciferase activity was detected with ONE Glo Luciferase Assay System (Promega) following the manufacturer's specifications. Each concentration was measured at least in technical triplicates and relative luminescence units (RLU) were obtained by normalization to free 4‐OH‐Tmx. Concentration response curves were calculated with Graph Pad Prism 9.
# [10] = test system: ERα; test: Luciferase reporter gene assay, HEK293 cells expressing hY1R-eYFP, ERα-pEGFP and 3xERE-TATA-luciferase; format: cell-based; conditions: ERα and ERE-luciferase, stimulation 24 h, normalized to 4-OHT, at least three independent experiments, n. d. = could not be determined
# Description: B) ERα‐pEGFP and TATA‐luciferase.
# Therefore, we tested HEK293 cells that transiently express hY1R, ERα, and an ERα activity‐dependent luciferase. ERα forms dimers and translocates into the nucleus upon activation, where it binds to the estrogen response element (ERE) upstream of the luciferase gene and induces luciferase expression.
# [11] = molecular target: human neuropeptide Y receptor type 5 (hY5R), in stably transfected COS-7 cells (human) (UniProt Q15761)
# [12] = molecular target: human neuropeptide Y receptor type 5 (hY5R), in stably transfected COS-7 cells (human) (UniProt Q15761); remark: listed apart in the source
# [13] = human blood plasma/DPBS (Biowest; 1:1, v/v); conditions: 37 °C, up to 72 h
# [14] = molecular target: hY4R‐eYFP (human) (UniProt P50391)
# Sequence of hY4R‐eYFP (human) (P50391 whole entry): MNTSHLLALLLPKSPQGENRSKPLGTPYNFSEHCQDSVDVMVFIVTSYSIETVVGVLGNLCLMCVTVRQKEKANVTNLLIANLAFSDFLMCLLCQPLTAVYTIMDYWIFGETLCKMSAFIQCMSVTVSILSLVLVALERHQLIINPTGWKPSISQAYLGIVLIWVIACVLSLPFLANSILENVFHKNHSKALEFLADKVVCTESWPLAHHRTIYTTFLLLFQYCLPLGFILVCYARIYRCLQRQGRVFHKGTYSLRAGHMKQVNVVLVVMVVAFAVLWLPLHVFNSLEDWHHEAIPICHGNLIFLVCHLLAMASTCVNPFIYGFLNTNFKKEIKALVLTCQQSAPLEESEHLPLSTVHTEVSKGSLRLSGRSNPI
# Sequence of human neuropeptide Y (NPY) receptor type 1 (hY1R), in stably transfected COS-7 cells (human) (P25929 whole entry): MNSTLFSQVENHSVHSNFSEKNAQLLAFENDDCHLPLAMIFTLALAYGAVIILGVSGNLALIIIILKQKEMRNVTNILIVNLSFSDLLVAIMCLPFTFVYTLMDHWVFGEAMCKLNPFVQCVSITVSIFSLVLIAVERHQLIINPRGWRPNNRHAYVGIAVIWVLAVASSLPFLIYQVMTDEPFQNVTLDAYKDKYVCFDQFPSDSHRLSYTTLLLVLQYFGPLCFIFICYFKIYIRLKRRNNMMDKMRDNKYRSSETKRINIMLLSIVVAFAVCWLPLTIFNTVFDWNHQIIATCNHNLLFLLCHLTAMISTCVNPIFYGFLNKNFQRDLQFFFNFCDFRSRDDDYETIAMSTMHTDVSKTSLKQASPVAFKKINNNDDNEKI
# Sequence of human neuropeptide Y receptor type 4 (hY4R), in stably transfected COS-7 cells (human) (P50391 whole entry): as the sequence (P50391 whole entry) above
# Sequence of human neuropeptide Y receptor type 5 (hY5R), in stably transfected COS-7 cells (human) (Q15761 whole entry): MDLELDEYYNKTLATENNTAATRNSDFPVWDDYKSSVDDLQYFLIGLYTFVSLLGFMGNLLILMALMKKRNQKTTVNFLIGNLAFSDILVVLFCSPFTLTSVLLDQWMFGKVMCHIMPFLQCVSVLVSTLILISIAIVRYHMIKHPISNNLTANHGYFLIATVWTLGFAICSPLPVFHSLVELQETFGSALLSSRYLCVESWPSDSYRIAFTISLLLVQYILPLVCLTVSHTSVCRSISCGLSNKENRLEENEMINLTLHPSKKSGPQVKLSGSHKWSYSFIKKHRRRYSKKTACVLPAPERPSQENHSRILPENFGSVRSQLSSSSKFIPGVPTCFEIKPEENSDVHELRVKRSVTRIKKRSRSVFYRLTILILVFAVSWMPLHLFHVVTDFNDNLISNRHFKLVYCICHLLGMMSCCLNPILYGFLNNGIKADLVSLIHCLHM
molecule,measurement,setting,value
"[K4(Diamine-4-OHT),F7,P34]-pNPY",fragment found,[1],peptide without 4-OHT
same,fragment found,[2],peptide without 4-OHT
same,fragment found,[3],peptide without 4-OHT
same,fragment found,[4],peptide without 4-OHT
"[F^7,P^34]‐pNPY (peptide)","calcium flux assay (receptor activation), EC50",[5],300 pM
same,"calcium flux assay (receptor activation), EC50",[6],100 pM
same,"IP1 accumulation assay (G-protein activation), EC50",[7],400 pM
same,"IP1 accumulation assay (G-protein activation), EC50",[8],1200 pM
"4‐OHT conjugate 1 of [F^7,P^34]‐pNPY (w/o linker) (peptide)","calcium flux assay (receptor activation), EC50",[5],600 pM
same,"calcium flux assay (receptor activation), EC50",[6],100 pM
"CC/C(=C(\c1ccc(O)cc1)c1ccc(OCCN(C)C)cc1)c1ccccc1 [4‐OHT, 4‐hydroxytamoxifen]",EC50,[9],5800 pM
same,EC50,[10],9400 pM
porcine neuropeptide Y (pNPY) (from UniProt P01304 10-45),"calcium flux assay (receptor activation), EC50",[11],7200 pM
same,"IP1 accumulation assay (G-protein activation), EC50",[12],3400 pM
YPSK(COCH2-4-OHT)PDFPGEDAPAEDLK(Tam)RYYSALRHYINLITRPRY-NH2,cleaved bond,[13],"R35-Y36, minor"
"YPSK(GFL-G(13C2,15N)- COCH2-4-OHT)PDFPGEDAPA(13C3,15N)EDLARYYSALRHYINL(13C6,15N)ITRPRY-NH2",cleaved bond,[13],Y1-P2; also recorded: P2-S3; also recorded: Y21-S22; also recorded: L24-R25; also recorded: L30-I31; also recorded: R35-Y36
B1,"calcium flux assay (receptor activation), EC50",[5],100 pM
same,"IP1 accumulation assay (G-protein activation), EC50",[7],200 pM
same,"arrestin-3 recruitment to the receptor (NanoBRET), EC50",[14],3900 pM

# Source: PMC12711160 (Chemmedchem, 2025)
